Results published in publication PMC4686757.

B1: canonical symmetrical E2F site GCGCGCC (dsDNA)
DNA 1: CTTTTGCGCGCCAAAG
DNA 2: CTTTGGCGCGCAAAAG
B2: E2F8 SELEX-preferred site GGCGGG (dsDNA)
DNA 1: TTTTTGGCGGGAAAA
DNA 2: TTTTCCCGCCAAAAA

Experiments:
[1] = molecular target: T1, E2F8 DBD1-DBD2 (human, UniProt A0AVK6 110-350); experiment: ITC; no binding detected under same conditions, 20 C; ITC: 20 mM HEPES pH 7.5, 150 mM NaCl, 5% glycerol, TCEP (printed 0.5 M), 20 C; 0.1 mM protein into 0.012-0.016 mM DNA
[2] = molecular target: T1, E2F8 DBD1-DBD2; experiment: ITC; 20 C; ITC: 20 mM HEPES pH 7.5, 150 mM NaCl, 5% glycerol, TCEP (printed 0.5 M), 20 C; 0.1 mM protein into 0.012-0.016 mM DNA

T1 sequence (A0AVK6 110-350): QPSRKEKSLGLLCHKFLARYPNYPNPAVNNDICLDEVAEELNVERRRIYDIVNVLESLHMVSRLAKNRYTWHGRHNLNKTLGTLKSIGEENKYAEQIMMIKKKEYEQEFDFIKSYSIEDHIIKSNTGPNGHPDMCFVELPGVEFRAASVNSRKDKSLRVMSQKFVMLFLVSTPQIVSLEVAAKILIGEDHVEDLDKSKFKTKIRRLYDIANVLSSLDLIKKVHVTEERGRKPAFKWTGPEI

Binder | binding result [1] | Kd [2]
B1 | no binding | 
B2 |  | ~260 nM
